From publication PMC7104376 (Nature structural & molecular biology, 2020)
Positions count from the first letter of the chain named.

B1: Maf1-id (S. cerevisiae Maf1 lacking the internal non-conserved region, Δ64-194) (natural protein, UniProt P41910 1-395, looked up)
chain: MKFIDELDIERVNQTLNFETNDCKIVGSCDIFTTKAVASDRKLYKTIDQHLDTILQENENYNASSGTATNNVNKRRKSSINERPSNLSLGPFGPINEPSSRKIFAYLIAILNASYPDHDFSSVEPTDFVKTSLKTFISKFENTLYSLGRQPEEWVWEVINSHMTLSDCVLFQYSPSNSFLEDEPGYLWNLIGFLYNRKRKRVAYLYLICSRLNSSTGEVEDALAKKPQGKLIIDDGSNEYEGEYDFTYDENVIDDKSDQEESLQ
B2: His-tagged C34 1-156 (the two N-terminal WH domains of C34) (domain or fragment, S. cerevisiae, UniProt P32910 1-156, looked up)
chain: MSGMIENGLQLSDNAKTLHSQMMSKGIGALFTQQELQKQMGIGSLTDLMSIVQELLDKNLIKLVKQNDELKFQGVLESEAQKKATMSAEEALVYSYIEASGREGIWSKTIKARTNLHQHVVLKCLKSLESQRYVKSVKSVKFPTRKIYMLYSLQPS

How the values were obtained:
[1] = biological target: T1, C160, subunit of S. cerevisiae RNA polymerase III (S. cerevisiae, UniProt P04051 1-1460); assay: cryo-EM structure
T1 sequence: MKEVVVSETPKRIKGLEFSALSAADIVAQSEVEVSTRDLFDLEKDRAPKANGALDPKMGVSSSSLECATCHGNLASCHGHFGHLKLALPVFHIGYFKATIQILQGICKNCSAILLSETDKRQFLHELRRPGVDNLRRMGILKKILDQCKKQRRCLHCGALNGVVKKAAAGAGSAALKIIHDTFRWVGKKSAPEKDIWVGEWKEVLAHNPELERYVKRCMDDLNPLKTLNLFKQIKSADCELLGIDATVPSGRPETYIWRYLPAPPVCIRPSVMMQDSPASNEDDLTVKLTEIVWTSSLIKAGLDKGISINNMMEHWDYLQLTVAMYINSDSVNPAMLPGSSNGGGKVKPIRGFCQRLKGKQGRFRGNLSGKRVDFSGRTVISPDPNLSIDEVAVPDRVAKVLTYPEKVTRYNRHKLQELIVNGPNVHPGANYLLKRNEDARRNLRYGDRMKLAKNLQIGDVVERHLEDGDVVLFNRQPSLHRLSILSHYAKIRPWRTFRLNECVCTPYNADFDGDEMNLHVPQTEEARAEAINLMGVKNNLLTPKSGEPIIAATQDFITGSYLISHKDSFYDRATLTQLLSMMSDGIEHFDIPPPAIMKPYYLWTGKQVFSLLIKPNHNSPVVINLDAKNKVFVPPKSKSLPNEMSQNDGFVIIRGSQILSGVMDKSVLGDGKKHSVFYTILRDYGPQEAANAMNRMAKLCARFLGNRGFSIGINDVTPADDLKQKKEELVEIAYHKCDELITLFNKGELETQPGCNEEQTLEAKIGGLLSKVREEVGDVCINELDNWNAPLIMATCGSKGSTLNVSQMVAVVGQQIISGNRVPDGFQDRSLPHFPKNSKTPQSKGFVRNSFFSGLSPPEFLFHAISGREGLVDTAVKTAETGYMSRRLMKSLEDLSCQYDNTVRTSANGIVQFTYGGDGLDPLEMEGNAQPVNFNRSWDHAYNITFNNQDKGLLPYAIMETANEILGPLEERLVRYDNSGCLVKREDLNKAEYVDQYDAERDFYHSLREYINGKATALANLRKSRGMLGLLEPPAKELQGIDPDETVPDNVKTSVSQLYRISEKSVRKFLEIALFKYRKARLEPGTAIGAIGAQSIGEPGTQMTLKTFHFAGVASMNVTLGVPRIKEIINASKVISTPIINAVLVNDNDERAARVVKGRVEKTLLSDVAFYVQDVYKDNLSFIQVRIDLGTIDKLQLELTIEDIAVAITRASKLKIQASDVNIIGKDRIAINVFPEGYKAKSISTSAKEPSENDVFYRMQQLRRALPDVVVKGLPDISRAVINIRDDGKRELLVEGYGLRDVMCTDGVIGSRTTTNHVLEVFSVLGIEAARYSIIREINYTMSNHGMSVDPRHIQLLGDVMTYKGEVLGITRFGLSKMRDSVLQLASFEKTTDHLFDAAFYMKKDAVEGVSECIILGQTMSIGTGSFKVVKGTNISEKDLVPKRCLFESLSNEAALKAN

[2] = biological target: T2, C34, subunit of S. cerevisiae RNA polymerase III (S. cerevisiae, UniProt P32910 1-317); assay: cryo-EM structure
T2 sequence: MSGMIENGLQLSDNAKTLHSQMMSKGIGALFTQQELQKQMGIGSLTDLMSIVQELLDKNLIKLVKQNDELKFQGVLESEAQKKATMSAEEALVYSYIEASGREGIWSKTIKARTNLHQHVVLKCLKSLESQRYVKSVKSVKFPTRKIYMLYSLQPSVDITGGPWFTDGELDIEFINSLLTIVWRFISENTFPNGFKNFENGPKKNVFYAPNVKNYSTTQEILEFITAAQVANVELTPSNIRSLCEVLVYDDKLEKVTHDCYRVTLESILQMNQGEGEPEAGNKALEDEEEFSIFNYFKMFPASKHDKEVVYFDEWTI

[3] = biological target: B1; assay: pull-down
[4] = biological target: T3, Maf1-id T33E/T34E (S. cerevisiae, UniProt P41910 1-395, Δ64-194 | T33E | T34E); assay: pull-down
T3 sequence (looked up): B1 chain with T33E, T34E

[5] = biological target: T4, Maf1-id D248A/D250A (S. cerevisiae, UniProt P41910 1-395, Δ64-194 | D248A | D250A); assay: pull-down
T4 sequence (looked up): B1 chain with D117A, D119A

[6] = biological target: T5, Maf1-id L318S/W319S (S. cerevisiae, UniProt P41910 1-395, Δ64-194 | L318S | W319S); assay: pull-down
T5 sequence (looked up): B1 chain with L187S, W188S

Measured: binding result

B1
binds: [1] | [2]

B2
binds: [3] | [4] | [5] | [6]
